Reference: US20250154231A1
Like-named read-outs stand apart in the source and are kept apart here.

Columns and labels:
Experiment in all cases: cell-based or functional assay
[1] = target: SARS-CoV-2 spike (S) protein, Omicron BJ.1 (SARS-CoV-2) (UniProt P0DTC2)
[2] = target: SARS-CoV-2 spike (S) protein, Omicron BA.2 (SARS-CoV-2) (UniProt P0DTC2)
[3] = target: SARS-CoV-2 spike (S) protein, Victoria strain (SARS-CoV-2) (UniProt P0DTC2)
[4] = target: SARS-CoV-2 spike (S) protein, Omicron BA.2.75.2 (SARS-CoV-2) (UniProt P0DTC2)
[5] = target: SARS-CoV-2 spike (S) protein, Omicron BA.4/5 (SARS-CoV-2) (UniProt P0DTC2)
[6] = target: SARS-CoV-2 spike (S) protein, Omicron BA.4.6 (SARS-CoV-2) (UniProt P0DTC2)
[7] = target: SARS-CoV-2 spike (S) protein, Omicron BA.2.75 (SARS-CoV-2) (UniProt P0DTC2)
[8] = target: SARS-CoV-2 spike (S) protein, Omicron BA.2.3.20 (SARS-CoV-2) (UniProt P0DTC2)
[9] = target: SARS-CoV-2 spike (S) protein, Omicron BA.2 (SARS-CoV-2) (UniProt P0DTC2); remark: listed apart in the source
[10] = target: SARS-CoV-2 spike (S) protein, Omicron BA.2.75 (SARS-CoV-2) (UniProt P0DTC2); remark: listed apart in the source
[11] = target: SARS-CoV-2 Omicron BA.2 spike (S) protein (SARS-CoV-2) (UniProt P0DTC2)
[12] = target: SARS-CoV-2 Omicron BA.1 spike (S) protein of the pseudovirus (SARS-CoV-2) (UniProt P0DTC2)
[13] = target: SARS-CoV-2 Gamma spike (S) protein (SARS-CoV-2) (UniProt P0DTC2)
[14] = target: SARS-CoV-2 spike (S) protein, Omicron BA.1 (SARS-CoV-2) (UniProt P0DTC2)
[15] = target: SARS-CoV-2 Omicron BA.1 spike (S) protein of the live isolate (SARS-CoV-2) (UniProt P0DTC2)
[16] = target: SARS-CoV-2 Alpha spike (S) protein (SARS-CoV-2) (UniProt P0DTC2)
[17] = target: SARS-CoV-2 Omicron BA.1.1 spike (S) protein, pseudovirus construct (SARS-CoV-2) (UniProt P0DTC2)
[18] = target: SARS-CoV-2 Omicron BA.1 spike (S) protein, pseudovirus construct (SARS-CoV-2) (UniProt P0DTC2)
[19] = target: SARS-CoV-2 spike (S) protein, Omicron BA.2 (SARS-CoV-2) (UniProt P0DTC2); remark: listed apart in the source
[20] = target: SARS-CoV-2 spike (S) protein, Omicron BA.1.1 (SARS-CoV-2) (UniProt P0DTC2)
[21] = target: SARS-CoV-2 spike (S) protein, Victoria strain (SARS-CoV-2) (UniProt P0DTC2); remark: listed apart in the source
[22] = target: SARS-CoV-2 Omicron BA.3 spike (S) protein (SARS-CoV-2) (UniProt P0DTC2)
[23] = target: SARS-CoV-2 Beta (B.1.351) spike (S) protein (SARS-CoV-2) (UniProt P0DTC2)
[24] = target: SARS-CoV-2 Omicron BA.4/5 spike (S) protein (SARS-CoV-2) (UniProt P0DTC2)
[25] = target: SARS-CoV-2 spike (S) protein, Omicron BA.4/5 (SARS-CoV-2) (UniProt P0DTC2); remark: listed apart in the source
[26] = target: SARS-CoV-2 Omicron (BA.1) spike (S) protein, live virus isolate (SARS-CoV-2) (UniProt P0DTC2)
[27] = target: SARS-CoV-2 Omicron BA.2 spike (S) protein, pseudovirus construct (SARS-CoV-2) (UniProt P0DTC2)
[28] = target: SARS-CoV-2 Omicron BA.3 spike (S) protein, pseudovirus construct (SARS-CoV-2) (UniProt P0DTC2)
[29] = target: SARS-CoV-2 Alpha (B.1.1.7) spike (S) protein (SARS-CoV-2) (UniProt P0DTC2)
[30] = target: SARS-CoV-2 Victoria spike (S) protein (SARS-CoV-2) (UniProt P0DTC2)
[31] = target: SARS-CoV-2 spike (S) protein, Omicron BA.3 (SARS-CoV-2) (UniProt P0DTC2)
[32] = target: SARS-CoV-2 Beta spike (S) protein (SARS-CoV-2) (UniProt P0DTC2)
[33] = target: SARS-CoV-2 Gamma (P.1) spike (S) protein (SARS-CoV-2) (UniProt P0DTC2)
[34] = target: SARS-CoV-2 Delta spike (S) protein (SARS-CoV-2) (UniProt P0DTC2)
[35] = target: SARS-CoV-2 Omicron BA.1.1 spike (S) protein (SARS-CoV-2) (UniProt P0DTC2)
[36] = target: SARS-CoV-2 spike (S) protein, Omicron BA.2.75 (SARS-CoV-2) (UniProt P0DTC2); remark: listed apart in the source

Sequence of Omi-29 (antibody) (VH): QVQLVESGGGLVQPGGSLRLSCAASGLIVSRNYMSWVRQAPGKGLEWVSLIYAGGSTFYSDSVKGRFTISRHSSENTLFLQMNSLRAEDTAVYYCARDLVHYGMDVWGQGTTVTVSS
Sequence of Omi-29 (antibody) (VL): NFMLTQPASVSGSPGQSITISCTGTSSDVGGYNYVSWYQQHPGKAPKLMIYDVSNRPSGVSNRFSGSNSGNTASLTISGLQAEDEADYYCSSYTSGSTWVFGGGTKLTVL
Sequence of Omi-18 (antibody) (VH): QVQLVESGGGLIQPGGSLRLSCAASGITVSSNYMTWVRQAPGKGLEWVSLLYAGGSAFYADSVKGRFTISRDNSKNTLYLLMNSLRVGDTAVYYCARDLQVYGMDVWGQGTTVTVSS
Sequence of Omi-18 (antibody) (VL): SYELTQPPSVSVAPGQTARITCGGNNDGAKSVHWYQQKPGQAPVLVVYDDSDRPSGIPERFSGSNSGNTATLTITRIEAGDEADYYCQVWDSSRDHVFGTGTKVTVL

## Omi-18 (antibody)
[1]
  IC50, pseudoviral neutralization: 0.005 µg/mL
[2]
  IC50, pseudoviral neutralization: 0.005 µg/mL
[3]
  IC50, pseudoviral neutralization: 0.008 µg/mL
[4]
  IC50, pseudoviral neutralization: 4.8 µg/mL
[5]
  IC50, pseudoviral neutralization: 0.005 µg/mL
[6]
  IC50, pseudoviral neutralization: 0.006 µg/mL
[7]
  IC50, pseudoviral neutralization: 0.035 µg/mL
[8]
  IC50, pseudoviral neutralization: 0.011 µg/mL
[9]
  pseudovirus neutralisation IC50: 0.005 µg/mL
[10]
  pseudovirus neutralisation IC50: 0.035 µg/mL
[11]
  IC50, authentic virus neutralization: 0.007 µg/mL
  IC50, pseudovirus neutralization: 0.005 µg/mL
[12]
  IC50, pseudovirus neutralization: 0.002 µg/mL
[13]
  IC50, authentic virus neutralization: 0.016 µg/mL
[14]
  pseudovirus neutralisation IC50: 0.002 µg/mL
[15]
  IC50, authentic virus neutralization: 0.006 µg/mL
[16]
  IC50, authentic virus neutralization: 0.038 µg/mL
[17]
  Pseudovirus - IC50: 0.002 µg/mL
[18]
  Pseudovirus - IC50: 0.002 µg/mL
[19]
  pseudovirus neutralisation IC50: 0.005 µg/mL
[20]
  pseudovirus neutralisation IC50: 0.002 µg/mL
[21]
  pseudovirus neutralisation IC50: 0.008 µg/mL
[22]
  IC50, pseudovirus neutralization: 0.006 µg/mL
[23]
  Authentic virus-IC50: 0.018 µg/mL
[24]
  IC50, pseudovirus neutralization: 0.005 µg/mL
[25]
  pseudovirus neutralisation IC50: 0.005 µg/mL
[26]
  Authentic virus-IC50: 0.006 µg/mL
[27]
  Pseudovirus - IC50: 0.005 µg/mL
[28]
  Pseudovirus - IC50: 0.006 µg/mL
[29]
  Authentic virus-IC50: 0.038 µg/mL
[30]
  Authentic virus-IC50: 0.041 µg/mL
  IC50, authentic virus neutralization: 0.041 µg/mL
  IC50, pseudovirus neutralization: 0.008 µg/mL
  Pseudovirus - IC50: 0.008 µg/mL
[31]
  pseudovirus neutralisation IC50: 0.006 µg/mL
[32]
  IC50, authentic virus neutralization: 0.018 µg/mL
[33]
  Authentic virus-IC50: 0.016 µg/mL
[34]
  Authentic virus-IC50: 0.025 µg/mL
  IC50, authentic virus neutralization: 0.025 µg/mL
[35]
  IC50, authentic virus neutralization: 0.006 µg/mL
  IC50, pseudovirus neutralization: 0.002 µg/mL
[36]
  pseudovirus neutralisation IC50: 0.035 µg/mL

## Omi-29 (antibody)
[1]
  IC50, pseudoviral neutralization: 0.025 µg/mL
[2]
  IC50, pseudoviral neutralization: 0.056 µg/mL
[3]
  IC50, pseudoviral neutralization: 0.014 µg/mL
[4]
  IC50, pseudoviral neutralization: > 10 µg/mL
[5]
  IC50, pseudoviral neutralization: 0.396 µg/mL
[6]
  IC50, pseudoviral neutralization: 0.17 µg/mL
[7]
  IC50, pseudoviral neutralization: > 10 µg/mL
[8]
  IC50, pseudoviral neutralization: > 10 µg/mL
[9]
  pseudovirus neutralisation IC50: 0.056 µg/mL
[10]
  pseudovirus neutralisation IC50: > 10 µg/mL
[11]
  IC50, authentic virus neutralization: 0.192 µg/mL
  IC50, pseudovirus neutralization: 0.056 µg/mL
[12]
  IC50, pseudovirus neutralization: 0.017 µg/mL
[13]
  IC50, authentic virus neutralization: 0.04 µg/mL
[14]
  pseudovirus neutralisation IC50: 0.017 µg/mL
[15]
  IC50, authentic virus neutralization: 0.036 µg/mL
[16]
  IC50, authentic virus neutralization: 0.066 µg/mL
[17]
  Pseudovirus - IC50: 0.016 µg/mL
[18]
  Pseudovirus - IC50: 0.017 µg/mL
[19]
  pseudovirus neutralisation IC50: 0.056 µg/mL
[20]
  pseudovirus neutralisation IC50: 0.016 µg/mL
[21]
  pseudovirus neutralisation IC50: 0.014 µg/mL
[22]
  IC50, pseudovirus neutralization: 0.064 µg/mL
[23]
  Authentic virus-IC50: 0.048 µg/mL
[24]
  IC50, pseudovirus neutralization: 0.396 µg/mL
[25]
  pseudovirus neutralisation IC50: 0.396 µg/mL
[26]
  Authentic virus-IC50: 0.036 µg/mL
[27]
  Pseudovirus - IC50: 0.056 µg/mL
[28]
  Pseudovirus - IC50: 0.064 µg/mL
[29]
  Authentic virus-IC50: 0.066 µg/mL
[30]
  Authentic virus-IC50: 0.044 µg/mL
  IC50, authentic virus neutralization: 0.044 µg/mL
  IC50, pseudovirus neutralization: 0.014 µg/mL
  Pseudovirus - IC50: 0.014 µg/mL
[31]
  pseudovirus neutralisation IC50: 0.064 µg/mL
[32]
  IC50, authentic virus neutralization: 0.048 µg/mL
[33]
  Authentic virus-IC50: 0.04 µg/mL
[34]
  Authentic virus-IC50: 0.029 µg/mL
  IC50, authentic virus neutralization: 0.029 µg/mL
[35]
  IC50, authentic virus neutralization: 0.052 µg/mL
  IC50, pseudovirus neutralization: 0.016 µg/mL
[36]
  pseudovirus neutralisation IC50: > 10 µg/mL
